Our source for the binding score values is paper PMC11098746 (2024).

B1: ADP375 (protein)
chain: SSKYAPDENCPDQNPRLRNWDPGQDSAKQVVIKEGDMLRLTSDATVHSIVIQDGGLLVFGDNKDGSRNITLRTHYILIQDGGALHIGAEKCRYKSKATITLYGKSDEGESMPTFGKKFIGVEAGGTLELHGARKASWTLLARTLNSSGLPFGSYTFEKDFSRGLNVRVIDQDTAKILESERFDTHEYRNESRRLQEFLRFQDPGRIVAIAVGDSAAKSLLQGTIQMIQERLGSELIQGLGYRQAWALVGVIDGGSTSCNESVRNYENHSSGGKALAQREFYTVDGQKFSVTAYSEWIEGVSLSGFRVEVVDGVKLNLLDDVSSWKPGDQIVVASTDYSMYQAEEFTLLPCSECSHFQVKVKETPQFLHMGEIIDGVDMRAEVGILTRNIVIQGEVEDSCYAENQCQFFDYDTFGGHIMIMKNFTSVHLSYVELKHMGQQQMGRYPVHFHLCGDVDYKGGYRHATFVDGLSIHHSFSRCITVHGTNGLLIKDTIGFDTLGHCFFLEDGIEQRNTLFHNLGLLTKPGTLLPTDRNNSMCTTMRDKVFGNYIPVPATDCMAVSTFWIAHPNNNLINNAAAGSQDAGIWYLFHKEPTGESSGLQLLAKPELTPLGIFYNNRVHSNFKAGLFIDKGVKTTNSSAADPREYLCLDNSARFRPHQDANPEKPRVAALIDRLIAFKNNDNGAWVRGGDIIVQNSAFADNGIGLTFASDGSFPSDEGSSQEVSESLFVGESRNYGFQGGQNKYVGTGGIDQKPRTLPRNRTFPIRGFQIYDGPIHLTRSTFKKYVPTPDRYSSAIGFLMKNSWQITPRNNISLVKFGPHVSLNVFFGKPGPWFEDCEMDGDKNSIFHDIDGSVTGYKDAYVGRMDNYLIRHPSCVNVSKWNAVICSGTYAQVYVQTWSTQNLSMTITRDEYPSNPMVLRGINQKAAFPQYQPVVMLEKGYTIHWNGPAPRTTFLYLVNFNKNDWIRVGLCYPSNTSFQVTFGYLQRQNGSLSKIEEYEPVHSLEELQRKQSERKFYFDSSTGLLFLYLKAKSHRHGHSYCSSQGCERVKIQAATDSKDISNCMAKAYPQYYRKPSVVKRMPAMLTGLCQGCGTRQVVFTSDPHKSYLPVQFQSPDKAETQRGDPSVISVNGTDFTFRSAGVLLLVVDPCSVPFRLTEKTVFPLADVSRIEEYLKTGIPPRSIVLLSTRGEIKQLNISHLLVPLGLAKPAHLYDKGSTIFLGFSGNFKPSWTKLFTSPAGQGLGVLEQFIPLQLDEYGCPRATTVRRRDLELLKQASKAH
modifications: bait human Fc-tagged dimer
B2: ADP156 (protein)
chain: MAILSFLPVLATESDWADCKSPQPWGHMLLWTAVLFLAPVAGTPAAPPKAVLKLEPQWINVLQEDSVTLTCRGTHSPESDSIQWFHNGNLIPTHTQPSYRFKANNNDSGEYTCQTGQTSLSDPVHLTVLSEWLVLQTPHLEFQEGETIVLRCHSWKDKPLVKVTFFQNGKSKKFSRSDPNFSIPQANHSHSGDYHCTGNIGYTLYSSKPVTITVQAPSSSPM
modifications: bait human Fc-tagged dimer
B3: ADP389 (protein)
chain: PSSLSQEQSEQDAIYQNLTQLKAAVGELSEKSKLQEIYQELTQLKAAVGELPEKSKLQEIYQELTRLKAAVGELPEKSKLQEIYQELTRLKAAVGELPEKSKLQEIYQELTRLKAAVGELPEKSKLQEIYQELTELKAAVGELPEKSKLQEIYQELTQLKAAVGELPDQSKQQQIYQELTDLKTAFERLCRHCPKDWTFFQGNCYFMSNSQRNWHDSVTACQEVRAQLVVIKTAEEQNFLQLQTSRSNRFSWMGLSDLNQEGTWQWVDGSPLSPSFQRYWNSGEPNNSGNEDCAEFSGSGWNDNRCDVDNYWICKKPAACFRDE
modifications: bait human Fc-tagged dimer
B4: ADP338 (protein)
chain: MAPRAARAPATLLLALGAVLWPAAGAWELTILHTNDVHSRLEQTSEDSSKCVNASRCMGGVARLFTKVQQIRRAEPNVLLLDAGDQYQGTIWFTVYKGAEVAHFMNALRYDAMALGNHEFDNGVEGLIEPLLKEAKFPILSANIKAKGPLASQISGLYLPYKVLPVGDEVVGIVGYTSKETPFLSNPGTNLVFEDEITALQPEVDKLKTLNVNKIIALGHSGFEMDKLIAQKVRGVDVVVGGHSNTFLYTGNPPSKEVPAGKYPFIVTSDDGRKVPVVQAYAFGKYLGYLKIEFDERGNVISSHGNPILLNSSIPEDPSIKADINKWRIKLDNYSTQELGKTIVYLDGSSQSCRFRECNMGNLICDAMINNNLRHTDEMFWNHVSMCILNGGGIRSPIDERNNGTITWENLAAVLPFGGTFDLVQLKGSTLKKAFEHSVHRYGQSTGEFLQVGGIHVVYDLSRKPGDRVVKLDVLCTKCRVPSYDPLKMDEVYKVILPNFLANGGDGFQMIKDELLRHDSGDQDINVVSTYISKMKVIYPAVEGRIKFSTGS
modifications: bait human Fc-tagged dimer
B5: ADP282 (protein)
chain: STWVTSEAYSSPSIVLSARGGDGSRIIFDDFREAYYWLRHNTPEDAKVMSWWDYGYQITAMANRTILVDNNTWNNTHISRVGQAMASTEEKAYEIMRELDVSYVLVIFGGLTGYSSDDINKFLWMVRIGGSTDTGKHIKENDYYTPTGEFRVDREGSPVLLNCLMYKMCYYRFGQVYTEAKRPPGFDRVRNAEIGNKDFELDVLEEAYTTEHWLVRIYKVKDLDNRGLSRT
modifications: bait human Fc-tagged dimer
B6: ADP344 (protein)
chain: MAWSFFRVVAMLFIFLVVVEVNSEFRIQVRDYNTKNGTIKWHSIRRQKREWIKFAAACREGEDNSKRNPIAKIHSDCAANQQVTYRISGVGIDQPPYGIFVINQKTGEINITSIVDREVTPFFIIYCRALNSMGQDLERPLELRVRVLDINDNPPVFSMATFAGQIEENSNANTLVMILNATDADEPNNLNSKIAFKIIRQEPSDSPMFIINRNTGEIRTMNNFLDREQYGQYALAVRGSDRDGGADGMSAECECNIKILDVNDNIPYMEQSSYTIEIQENTLNSNLLEIRVIDLDEEFSANWMAVIFFISGNEGNWFEIEMNERTNVGILKVVKPLDYEAMQSLQLSIGVRNKAEFHHSIMSQYKLKASAISVTVLNVIEGPVFRPGSKTYVVTGNMGSNDKVGDFVATDLDTGRPSTTVRYVMGNNPADLLAVDSRTGKLTLKNKVTKEQYNMLGGKYQGTILSIDDNLQRTCTGTININIQSFGNDDRTNTEPNTKITTNTGRQESTSSTNYDTSTTSTDSSQVYSSEPGNGAKDLLSDNVHFGPAG
modifications: bait human Fc-tagged dimer
B7: ADP396 (protein)
chain: PSLIKQQVLKNVRIDPSSLSFNMWKEIPIPFYLSVYFFDVMNPSEILKGEKPQVRERGPYVYREFRHKSNITFNNNDTVSFLEYRTFQFQPSKSHGSESDYIVMPNILVLGAAVMMENKPMTLKLIMTLAFTTLGERAFMNRTVGEIMWGYKDPLVNLINKYFPGMFPFKDKFGLFAELNNSDSGLFTVFTGVQNISRIHLVDKWNGLSKVDFWHSDQCNMINGTSGQMWPPFMTPESSLEFYSPEACRSMKLMYKESGVFEGIPTYRFVAPKTLFANGSIYPPNEGFCPCLESGIQNVSTCRFSAPLFLSHPHFLNADPVLAEAVTGLHPNQEAHSLFLDIHPVTGIPMNCSVKLQLSLYMKSVAGIGQTGKIEPVVLPLLWFAESGAMEGETLHTFYTQLVLMPKVMHY
modifications: bait human Fc-tagged dimer
B8: ADP351 (protein)
chain: MARRRGSPGMGVHVGAALGALWFCLTGALEVQVPEDPVVALVGTDATLCCSFSPEPGFSLAQLNLIWQLTDTKQLVHSFAEGQDQGSAYANRTALFPDLLAQGNASLRLQRVRVADEGSFTCFVSIRDFGSAAVSLQVAAPYSKPSMTLEPNKDLRPGDTVTITCSSYQGYPEAEVFWQDGQGVPLTGNVTTSQMANEQGLFDVHSILRVVLGANGTYSCLVRNPVLQQDAHSSVTITPQRSPTGAVEVQVPEDPVVALVGTDATLRCSFSPEPGFSLAQLNLIWQLTDTKQLVHSFTEGRDQGSAYANRTALFPDLLAQGNASLRLQRVRVADEGSFTCFVSIRDFGSAAVSLQVAAPYSKPSMTLEPNKDLRPGDTVTITCSSYRGYPEAEVFWQDGQGVPLTGNVTTSQMANEQGLFDVHSVLRVVLGANGTYSCLVRNPVLQQDAHGSVTITGQPMTFPP
modifications: bait human Fc-tagged dimer
B9: ADP365 (protein)
chain: MALGSPGLLFLLFSSLRADTQEKEVRAMVGSDVELSCACPEGSRFDLNDVYVYWQTSESKTVVTYHIPQNSSLENVDSRYRNRALMSPAGMLRGDFSLRLFNVTPQDEQKFHCLVLSQSLGFQEVLSVEVTLHVAANFSVPVVSAPHSPSQDELTFTCTSINGYPRPNVYWINKTDNSLLDQALQNDTVFLNMRGLYDVVSVLRIARTPSVNIGCCIENVLLQQNLTVGSQTGNDIGERDKITENPVSTG
modifications: bait human Fc-tagged dimer
B10: ADP322 (protein)
chain: MAALGPALLQALWAGWVLTLQPLPPTAFTPNGTYLQHLARDPTSGTLYLGATNFLFQLSPGLQLEATVSTGPVLDSRDCLPPVMPDECPQAQPTNNPNQLLLVSPGALVVCGSVHQGVCEQRRLGQLEQLLLRPERPGDTQYVAANDPAVSTVGLVAQGLAGEPLLFVGRGYTSRGVGGGIPPITTRALWPPDPQAAFSYEETAKLAVGRLSEYSHHFVSAFARGASAYFLFLRRDLQAQSRAFRAYVSRVCLRDQHYYSYVELPLACEGGRYGLIQAAAVATSREVAHGEVLFAAFSSAAPPTVGRPPSAAAGASGASALCAFPLDEVDRLANRTRDACYTREGRAEDGTEVAYIEYDVNSDCAQLPVDTLDAYPCGSDHTPSPMASRVPLEATPILEWPGIQLTAVAVTMEDGHTIAFLGDSQGQLHRVYLGPGSDGHPYSTQSIQQGSAVSRDLTFDGTFEHLYVMTQSTLLKVPVASCAQHLDCASCLAHRDPYCGWCVLLGRCSRRSECSRGQGPEQWLWSFQPELGCLQVAAMSPANISREETREVFLSVPDLPPLWPGESYSCHFGEHQSPALLTGSGVMCPSPDPSEAPVLPRGADYVSVSVELRFGAVVIAKTSLSFYDCVAVTELRPSAQCQACVSSRWGCNWCVWQHLCTHKASCDAGPMVASHQSPLVSPDPPARGGPSPSPPTAPKALATPAPDTLPVEPGAPSTATASDISPGASPSLLSPWGPWAGSGSISSPGSTGSPLHEEPSPPSPQNGPGTAVPAPTDFRPSATPEDLLASPLSPSEVAAVPPADPGPEALHPTVPLDLPPATVPATTFPGAMGSVKPALDWLTREGGELPEADEWTGGDAPAFSTSTLLSGDGDSAELEGPPAPLILPSSLDYQYDTPGLWELEEATLGASSCPCVESVQGSTLMPVHVEREIRLLGRNLHLFQDGPGDNECVMELEGLEVVVEARVECEPPPDTQCHVTCQQHQLSYEALQPELRVGLFLRRAGRLRVDSAEGLHVVLYDCSVGHGDCSRCQTAMPQYGCVWCEGERPRCVTREACGEAEAVATQCPAPLIHSVEPLTGPVDGGTRVTIRGSNLGQHVQDVLGMVTVAGVPCAVDAQEYEVSSSLVCITGASGEEVAGATAVEVPGRGRGVSEHDFAYQDPKVHSIFPARGPRAGGTRLTLNGSKLLTGRLEDIRVVVGDQPCHLLPEQQSEQLRCETSPRPTPATLPVAVWFGATERRLQRGQFKYTLDPNITSAGPTKSFLSGGREICVRGQNLDVVQTPRIRVTVVSRMLQPSQGLGRRRRVVPETACSLGPSCSSQQFEEPCHVNSSQLITCRTPALPGLPEDPWVRVEFILDNLVFDFATLNPTPFSYEADPTLQPLNPEDPTMPFRHKPGSVFSVEGENLDLAMSKEEVVAMIGDGPCVVKTLTRHHLYCEPPVEQPLPRHHALREAPDSLPEFTVQMGNLRFSLGHVQYDGESPGAFPVAAQ
modifications: bait human Fc-tagged dimer

The target of the test is Circumsporozoite protein (CSP) (Plasmodium falciparum (isolate 3D7), UniProt Q7K740). Nature of the test: AVEXIS screen signal:noise (double-corrected).
Circumsporozoite protein (CSP), sequence (Q7K740 19-374): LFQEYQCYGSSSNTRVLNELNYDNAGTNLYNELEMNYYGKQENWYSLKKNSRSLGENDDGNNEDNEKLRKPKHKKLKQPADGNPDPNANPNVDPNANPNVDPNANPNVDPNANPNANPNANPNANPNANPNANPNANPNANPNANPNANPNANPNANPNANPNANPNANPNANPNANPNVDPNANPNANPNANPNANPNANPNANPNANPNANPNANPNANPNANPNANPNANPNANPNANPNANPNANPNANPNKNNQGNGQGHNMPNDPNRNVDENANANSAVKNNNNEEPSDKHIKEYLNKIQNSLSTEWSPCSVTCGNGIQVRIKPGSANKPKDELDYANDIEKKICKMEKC
As for B1, the binding score was found to be 0.71.

For B2, the binding score was 1.12.

The molecule B3 gave a binding score of 0.72.

Regarding B4, the binding score is 1.27.

With B5, the binding score is 0.691.

Consider B6, for which the binding score was found to be 1.01.

For the molecule B7, the binding score amounted to 2.67.

B8 showed a binding score of 1.23.

The molecule B9 showed a binding score of 2.12.

B10 gave a binding score of 2.59.
